Laboratory results from US20140087991A1, “PEPTIDE PRODRUGS” (The Johns Hopkins University, priority 2006, published 2014).
pIC50: −log10 of the molar value. Ends that are not written are not given here. Peptide text beside a SMILES is read from it.

Tests used:
[1] = biological target: T1, FAP (Homo sapiens, UniProt Q12884); assay: FAP dipeptidyl peptidase assay; format: biochemical
T1 construct: the extracellular domain of FAP was cloned with a His-6 tag; made in house
T1 sequence (Q12884 26-760 limits assumed): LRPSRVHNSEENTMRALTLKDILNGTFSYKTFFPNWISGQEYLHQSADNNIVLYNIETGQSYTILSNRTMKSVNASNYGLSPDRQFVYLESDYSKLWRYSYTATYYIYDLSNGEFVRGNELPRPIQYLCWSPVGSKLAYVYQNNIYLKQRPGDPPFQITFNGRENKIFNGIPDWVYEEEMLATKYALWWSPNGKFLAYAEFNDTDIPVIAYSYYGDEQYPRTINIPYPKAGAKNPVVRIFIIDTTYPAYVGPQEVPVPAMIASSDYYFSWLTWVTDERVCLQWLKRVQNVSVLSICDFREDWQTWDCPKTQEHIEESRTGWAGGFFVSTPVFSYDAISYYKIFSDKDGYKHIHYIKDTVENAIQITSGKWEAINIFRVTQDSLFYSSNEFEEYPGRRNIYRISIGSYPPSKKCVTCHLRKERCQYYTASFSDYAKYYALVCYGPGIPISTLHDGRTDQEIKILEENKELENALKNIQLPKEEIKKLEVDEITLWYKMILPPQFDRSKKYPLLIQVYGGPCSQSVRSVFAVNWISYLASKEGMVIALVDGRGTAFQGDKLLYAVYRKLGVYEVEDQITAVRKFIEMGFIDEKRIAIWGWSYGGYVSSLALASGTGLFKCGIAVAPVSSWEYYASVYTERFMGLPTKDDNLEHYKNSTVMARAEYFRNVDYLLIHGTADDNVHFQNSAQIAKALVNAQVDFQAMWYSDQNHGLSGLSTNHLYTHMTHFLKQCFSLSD
Experimental: Quantitative assay for dipeptidyl peptidase activity were developed using Ala-Pro-AFC as the substrate as described by Park et al^18. Purified protein was mixed with 5-10-fold volumes of reaction buffer (100 mM NaCl, 100 mM Tris, pH 7.8), and added to an equal volume of 0.5 mM Ala-Pro-AFC in reaction buffer followed by incubation for 1 h at 37° C. Release of free AFC was measured in a DTX 880 Multimode Detector (Beckman, Fullerton, Calif.) using the 395 nm excitation/530 nm emission filter set.

[2] = system: all cell lines tested; assay: Cytotoxicity, average IC50 over cell lines; format: cell-based
[3] = biological target: T1, FAP; assay: FAP gelatinase and collagenase assay with quenched (DQ) proteins; format: biochemical; settings: 100 μgs/ml protein substrate
Experimental: Quenched gelatin and collagen conjugates were used to detect and confirm FAP's gelatinase and collagenase activity. DQ™ Gelatin from pig skin, DQ™ collagen, type IV from human placenta, DQ™ collagen, type I from bovine skin, all as fluorescent conjugates (Invitrogen, Rockville, Md.) were digested with FAP and digestion monitored on a fluorescence plate reader. Protein substrates were dissolved in reaction buffer (100 mM NaCl, 100 mM Tris, pH 7.8) to a final concentration of 100 μgs/ml. Trypsin digestion was used as a positive control. As a negative control the His tagged extra cellular domain of Prostate Specific Membrane Antigen (PSMA), which was similarly purified from S2 cells under the same conditions as FAP. Fluorescent quenched DQ™ Bovine Serum Albumin was used as a negative control for FAP protease activity.
Quenched forms of Gelatin and Collagen were used to confirm the gelatinase and collagenase activity of recombinant FAP. Quenching is achieved by labeling these proteins with the fluorophore FITC such that fluorescence signal from the intact protein is minimal due to is self-quenching by the fluorphore. Protein digestion releases FITC-labeled fragments that result in measurable increase in overall fluorescence signal from the reaction mixture. […] On a relative basis gelatin was digested ˜10-fold better by FAP than collagen I. MALDI analysis of digested fragments was performed to confirm hydrolysis.

[4] = biological target: T2, FAP (Homo sapiens, UniProt Q12884); settings: previously demonstrated; cited from earlier work
T2 sequence (Q12884 1-760): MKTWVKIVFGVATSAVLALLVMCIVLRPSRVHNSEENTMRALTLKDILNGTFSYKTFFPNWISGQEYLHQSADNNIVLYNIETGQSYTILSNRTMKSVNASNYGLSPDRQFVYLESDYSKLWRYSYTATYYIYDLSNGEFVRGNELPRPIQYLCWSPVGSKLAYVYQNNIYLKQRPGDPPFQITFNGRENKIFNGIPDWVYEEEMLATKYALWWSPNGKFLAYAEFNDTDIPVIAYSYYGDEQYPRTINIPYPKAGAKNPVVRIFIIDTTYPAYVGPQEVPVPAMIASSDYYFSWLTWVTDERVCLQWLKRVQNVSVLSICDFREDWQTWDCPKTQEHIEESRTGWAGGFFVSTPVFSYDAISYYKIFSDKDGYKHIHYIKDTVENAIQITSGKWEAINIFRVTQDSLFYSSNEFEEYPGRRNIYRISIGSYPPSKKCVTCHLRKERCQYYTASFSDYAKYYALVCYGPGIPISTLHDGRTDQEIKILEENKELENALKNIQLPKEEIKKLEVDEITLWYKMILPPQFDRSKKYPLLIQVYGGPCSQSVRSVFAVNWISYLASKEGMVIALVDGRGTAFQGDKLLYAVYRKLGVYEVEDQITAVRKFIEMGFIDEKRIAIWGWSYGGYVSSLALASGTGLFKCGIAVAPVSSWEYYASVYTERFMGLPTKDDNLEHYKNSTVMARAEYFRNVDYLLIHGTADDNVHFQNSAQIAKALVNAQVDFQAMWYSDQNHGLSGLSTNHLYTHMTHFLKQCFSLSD

[5] = biological target: T3, His-tagged FAP (Homo sapiens, UniProt Q12884); assay: FAP hydrolysis of MCA/DNP fluorescence quenched peptide substrates; format: biochemical
T3 construct: the extracellular domain of FAP was cloned with a His-6 tag; made in house
T3 sequence (Q12884 26-760 limits assumed): T1 sequence (Q12884 26-760 limits assumed)
Experimental: Quenched substrates were prepared by using the MCA/DNP fluorophore/quencher pair. Synthesis of peptides was done using standard Fmoc solid phase coupling on NovaTag™ Dnp resin with a substitution level of 0.4 mmole/g (Novabiochem, San Diego, Calif.). N-terminal capping was done twice overnight with N-(7-methoxycoumarin-4-acetyloxy)succinimide (MCA-Osu) and 1-Hydroxybenzotriazole (HOBt) in N-Methyl 2 Pyrrolidone (NMP). Peptides were cleaved with 95% TFA, 2.5% TIS and 2.5% water. The purity and mass of each quenched peptide was confirmed by Reversed Phase-HPLC and MALDI-TOF analysis.
Quenched peptide substrates were weighed and dissolved in DMSO to obtain a final concentration of 50 mM and were stored at −20° C. until later use. Dilutions (e.g. 200 μM, 100 μM, 50 μM, 25 μM) were prepared in duplicates in the reaction buffer. His-tagged FAP was added to a final concentration of 5 nM. Release of free MCA was measured at excitation 355 nm and emission 460 nm in a 96-well fluorescence plate reader. Controls consisted of substrates in buffer±BSA.
On the basis of the 8.5 kDa gelatin cleavage map a series of fluorescence quenched substrates were prepared (colored sequences in Table 3) by using the Methoxycoumarin (MCA)/Dinitrophenyl (DNP) FRET combination (52). […]

[6] = system: FAP-transfected MDA-MB-231 cells; assay: Hydrolysis of quenched peptides by FAP-transfected MDA-MB-231 cells; format: cell-based, human; settings: 50 μM in serum containing media
From the text: Human breast cancer cell lines MCF-7 and MDA-MB-231 were selected for transfection because the cells were negative for FAP when grown under standard culture conditions (25). Details of transfection methodology are described in methods section of Specific Aim 2 below. Briefly, a 2.2 kb PCR fragment was purified by gel electrophoresis, digested with NheI and cloned into bicistronic pIRES vector (kindly provided by Dr. Ben Park, The Johns Hopkins University) previously digested with Nhe 1. Final construct was designated as pFAPIRES. Sequencing primers were designed for the entire length of the gene and were confirmed to be correct. The cells were transfected using Fugene 6 (Roche). Control transfections were done on the same lines with the empty IRES vector. Cells were characterized for production of FAP by Flow Cytometry (FIG. 17A-FIG. 17D).
(§1) Subsequently, one of the MDA-MB-231 clones was used to evaluate FAP activity in vitro. In this assay cells were grown in serum containing media to 70% confluency followed by addition of fluorescence quenched peptides into the media at concentration of 50 μM. As a control cell lines transfected with the carboxypeptidase PSMA using the same vector system were used. Cells were incubated with three different FAP substrates, FIG. 18.

[7] = system: control cells transfected with PSMA; assay: Hydrolysis of quenched peptides by control cells transfected with PSMA; format: cell-based, human; settings: 50 μM
Experimental: as §1

[8] = biological target: T1, FAP; assay: Digestion of human collagen I and recombinant gelatins with FAP (SDS-PAGE, MALDI); format: biochemical; settings: SDS PAGE and MALDI spectra
Experimental: Human collagen I (Becton Dickinson, Franklin Lakes, N.J.) and recombinant human gelatins of 100 KDa and 8.5 KDa (Fibrogen, San Francisco, Calif.) were dissolved in reaction buffer to a final concentration of 100-300 μg/ml. 0.5-1 μg of FAP was added per 100 μgs of protein substrate. Digestion was done for 4-6 hrs at 37° C. As a positive control trypsin digestion was used. As a negative control, protein solutions were incubated either with BSA or buffer only. Peptide fragments of a size <30 KDa were purified using 30 KDa Microcon spin filter (Millipore, Billerica, Mass.).
In an effort to elucidate the substrate specificity of FAP, we examined FAP digests of unlabeled human Collagen I using matrix assisted laser desorption ionization (MALDI) time of flight mass spectrometry. Digestion reactions were performed at a substrate to protease mass ratio of 200:1 using recombinant FAP or modified trypsin as a control. Two negative controls of Collagen alone and FAP alone were also included to identify any peptides due to autolysis/degradation of these proteins. […]
As Collagen I and Gelatin are currently the only known protein substrates for FAP, we developed an alternative method to identify FAP-selective cleavage sites within these proteins. […] The masses of fragments <3 KDa were purified for MALDI spectra and again analyzed using the FindPept tool. […]

Molecule: C[C@H](N)C(=O)N1CCC[C@H]1C(=O)Nc1ccc2c(C(F)(F)F)cc(=O)oc2c1 [Ala-Pro-AFC] (HELM PEPTIDE1{A.P.[O=c1cc(C(F)(F)F)c2ccc(N[*:1])cc2o1]}$$$$V2.0)
- cleavage of dipeptide substrate by purified FAP [1]: same kinetic parameters as previously described

Molecule: CC(=O)O[C@H]1C(=O)[C@@]2(C)[C@H]([C@H](OC(=O)c3ccccc3)[C@]3(O)C[C@H](OC(=O)[C@H](O)[C@@H](NC(=O)c4ccccc4)c4ccccc4)C(C)=C1C3(C)C)[C@]1(OC(C)=O)CO[C@@H]1C[C@@H]2O [paclitaxel]
- pIC50 [2]: 8.00

Molecule: C/C=C(/C)C(=O)O[C@H]1C(C)=C2[C@H]([C@@H]1OC(=O)CCCCCCC)[C@@](C)(OC(C)=O)C[C@H](OC(=O)CCC)[C@@]1(O)[C@H]2OC(=O)[C@@]1(C)O [thapsigargin]
- pIC50 [2]: 10.00

Molecule: Collagen I: FITC-quenched DQ collagen I from bovine skin; in b297 Collagen I of the cited literature
- hydrolysis of FITC-quenched protein by FAP [3]: readily hydrolyzed
- cleavage by FAP [4]: could cleave

Molecule: Collagen IV: FITC-quenched DQ collagen IV from human placenta; in b297 Collagen IV of the cited literature
- hydrolysis of FITC-quenched protein by FAP [3]: not all digested
- cleavage by FAP [4]: not

Molecule: VGPAGK (also: MCA/DNP quench labels) [tested as MCA/DNP fluorescence quenched substrate]
- Km ([5]; FAP hydrolysis of quenched substrate, Michaelis Menten): ~50 µM
- hydrolysis by FAP ([5]; substrate at 25 μM): rapidly hydrolyzed
- hydrolysis by FAP-positive cells [6]: appreciably hydrolyzed
- hydrolysis by control media [7]: relatively stable to hydrolysis

Molecule: human Collagen I: unlabeled human collagen I (Becton Dickinson)
- digestion by FAP [8]: cleaved by FAP at certain specific sites
